System: HeLa cells
Format: cell-based, Human

B1: Holo-neocarzinostatin (protein, UniProt P0A3R9 35-147, looked up)
Neocarzinostatin: AAPTATVTPSSGLSDGTVVKVAGAGLQAGTAYDVGQCAWVDTGVLACNPADFSSVTADANGSASTSLTVRRSFEGFLFDGTRWGTVDCTTAACQVGLSDAAGNGPEGVAISFN
modifications: enediyne chromophore bound
For B1, the cell survival was no less than 90%, the “incubation time within which full cytotoxic effect develops” value (37° C.) was no more than 6 min and the IC50 (read-out: concentration of drug that kills 50% of the cell population) was 0.71 ± 0.05 nM.
